According to article PMC10786891, “Massively parallel profiling of RNA-targeting CRISPR-Cas13d”:

T1: EsCas13d, nuclease-dead (Eubacterium siraeum, UniProt B0MS50, R295A;H300A;R849A;H854A)
T1 sequence: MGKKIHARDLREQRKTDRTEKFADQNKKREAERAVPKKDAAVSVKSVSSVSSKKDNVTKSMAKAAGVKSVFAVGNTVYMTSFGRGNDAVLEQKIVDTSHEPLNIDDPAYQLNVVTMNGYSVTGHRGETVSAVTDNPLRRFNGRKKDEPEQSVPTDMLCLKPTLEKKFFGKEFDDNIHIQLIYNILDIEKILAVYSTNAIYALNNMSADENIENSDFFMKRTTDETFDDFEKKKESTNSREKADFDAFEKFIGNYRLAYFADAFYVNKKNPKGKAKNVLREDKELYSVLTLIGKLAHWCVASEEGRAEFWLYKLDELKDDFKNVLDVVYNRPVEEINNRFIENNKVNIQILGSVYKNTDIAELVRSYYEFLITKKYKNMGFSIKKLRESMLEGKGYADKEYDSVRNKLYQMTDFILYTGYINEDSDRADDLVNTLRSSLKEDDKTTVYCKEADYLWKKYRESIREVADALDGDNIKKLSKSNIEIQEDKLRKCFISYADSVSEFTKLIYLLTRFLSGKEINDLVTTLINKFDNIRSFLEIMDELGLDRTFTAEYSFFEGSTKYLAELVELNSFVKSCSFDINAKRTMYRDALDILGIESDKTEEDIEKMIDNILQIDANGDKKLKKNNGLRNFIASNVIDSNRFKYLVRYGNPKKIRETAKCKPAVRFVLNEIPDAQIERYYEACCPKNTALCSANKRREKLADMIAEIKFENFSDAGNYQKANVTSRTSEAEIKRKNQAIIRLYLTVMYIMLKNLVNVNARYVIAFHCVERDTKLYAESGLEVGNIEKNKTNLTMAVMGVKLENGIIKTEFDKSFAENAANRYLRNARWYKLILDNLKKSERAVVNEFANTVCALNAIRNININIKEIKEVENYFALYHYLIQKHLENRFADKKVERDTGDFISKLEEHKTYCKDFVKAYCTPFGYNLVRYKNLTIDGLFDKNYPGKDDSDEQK


Target: T1, EsCas13d, nuclease-dead
Assay: crRNA (strand 1, pre-loaded); Mg2+; 40 mM Tris-HCl pH 7.5, 150 mM NaCl, 6 mM MgCl2, 1 mM DTT, 0.1% Tween-20, 0.2 mg/ml BSA; 25 C; 10 min per concentration, then washed
Details: tags: His6-TwinStrep-SUMO cleaved; N-terminal SNAP kept (SNAP-Surface 488); label: 3' end held by stalled T7 RNA polymerase

Row | Binder | Kd [nM]
1 | target 1 insU 3' of 18,insG 3' of 7 (mixed) RNA 1: CACCCGUGCAAAAAUGCAGGGGUCUAAAACUGAGCGGAUAACCUCUCUAUGG RNA 2: GGGAAUGGAUCCACAUCUACGAAUUCGUACCAUAUGAGAGGUUAUCGCGCUCACCGAGAUCGGAAGAGCACACGU | 25.5 ± 1.2
2 | target 1 C4U,A20C (mixed) RNA 1: CACCCGUGCAAAAAUGCAGGGGUCUAAAACUGAGCGGAUAACCUCUCUAUGG RNA 2: GGGAAUGGAUCCACAUCUACGAAUUCGUACCCUAGAGAGGUUAUCCGUUCACCGAGAUCGGAAGAGCACACGU | ~90
3 | target 2 MT 5'PFS AUU 3'PFS CGG (mixed) RNA 1: CACCCGUGCAAAAUUGCAGGGGUCUAAAACCUUCUCCAAAUUGUUUCAUCCU RNA 2: GGGAAUGGAUCCACAUCUACGAAUUCAUUAGGAUGAAACAAUUUGGAGAAGCGGAGAUCGGAAGAGCACACGU | 9.6 ± 1.7
4 | target 2 MT 5'PFS ACU 3'PFS AUC (mixed) RNA 1: CACCCGUGCAAAAUUGCAGGGGUCUAAAACCUUCUCCAAAUUGUUUCAUCCU RNA 2: GGGAAUGGAUCCACAUCUACGAAUUCACUAGGAUGAAACAAUUUGGAGAAGAUCAGAUCGGAAGAGCACACGU | 4.1 ± 0.4
5 | target 2 MT 5'PFS UAU 3'PFS CAU (mixed) RNA 1: CACCCGUGCAAAAUUGCAGGGGUCUAAAACCUUCUCCAAAUUGUUUCAUCCU RNA 2: GGGAAUGGAUCCACAUCUACGAAUUCUAUAGGAUGAAACAAUUUGGAGAAGCAUAGAUCGGAAGAGCACACGU | 24.1 ± 2.7
6 | target 2 MT 5'PFS UCU 3'PFS AUG (mixed) RNA 1: CACCCGUGCAAAAUUGCAGGGGUCUAAAACCUUCUCCAAAUUGUUUCAUCCU RNA 2: GGGAAUGGAUCCACAUCUACGAAUUCUCUAGGAUGAAACAAUUUGGAGAAGAUGAGAUCGGAAGAGCACACGU | 8.3 ± 1.5
7 | target 2 MT 5'PFS GCA 3'PFS AGG (mixed) RNA 1: CACCCGUGCAAAAUUGCAGGGGUCUAAAACCUUCUCCAAAUUGUUUCAUCCU RNA 2: GGGAAUGGAUCCACAUCUACGAAUUCGCAAGGAUGAAACAAUUUGGAGAAGAGGAGAUCGGAAGAGCACACGU | 13.1 ± 1.8
8 | target 2 MT 5'PFS GGA 3'PFS ACA (mixed) RNA 1: CACCCGUGCAAAAUUGCAGGGGUCUAAAACCUUCUCCAAAUUGUUUCAUCCU RNA 2: GGGAAUGGAUCCACAUCUACGAAUUCGGAAGGAUGAAACAAUUUGGAGAAGACAAGAUCGGAAGAGCACACGU | 10.4 ± 1.2
9 | target 2 MT 5'PFS UGC 3'PFS CAC (mixed) RNA 1: CACCCGUGCAAAAUUGCAGGGGUCUAAAACCUUCUCCAAAUUGUUUCAUCCU RNA 2: GGGAAUGGAUCCACAUCUACGAAUUCUGCAGGAUGAAACAAUUUGGAGAAGCACAGAUCGGAAGAGCACACGU | 18 ± 4
10 | target 2 MT 5'PFS ACU 3'PFS AUG (mixed) RNA 1: CACCCGUGCAAAAUUGCAGGGGUCUAAAACCUUCUCCAAAUUGUUUCAUCCU RNA 2: GGGAAUGGAUCCACAUCUACGAAUUCACUAGGAUGAAACAAUUUGGAGAAGAUGAGAUCGGAAGAGCACACGU | 4.9 ± 0.6
11 | target 2 MT 5'PFS ACU 3'PFS AUU (mixed) RNA 1: CACCCGUGCAAAAUUGCAGGGGUCUAAAACCUUCUCCAAAUUGUUUCAUCCU RNA 2: GGGAAUGGAUCCACAUCUACGAAUUCACUAGGAUGAAACAAUUUGGAGAAGAUUAGAUCGGAAGAGCACACGU | 4.4 ± 0.6
12 | target 2 MT 5'PFS CGU 3'PFS CGC (mixed) RNA 1: CACCCGUGCAAAAUUGCAGGGGUCUAAAACCUUCUCCAAAUUGUUUCAUCCU RNA 2: GGGAAUGGAUCCACAUCUACGAAUUCCGUAGGAUGAAACAAUUUGGAGAAGCGCAGAUCGGAAGAGCACACGU | 11.1 ± 1.7
13 | target 2 MT 5'PFS AAC 3'PFS CCG (mixed) RNA 1: CACCCGUGCAAAAUUGCAGGGGUCUAAAACCUUCUCCAAAUUGUUUCAUCCU RNA 2: GGGAAUGGAUCCACAUCUACGAAUUCAACAGGAUGAAACAAUUUGGAGAAGCCGAGAUCGGAAGAGCACACGU | 5.9 ± 0.6
14 | target 2 MT 5'PFS AAA 3'PFS AAC (mixed) RNA 1: CACCCGUGCAAAAUUGCAGGGGUCUAAAACCUUCUCCAAAUUGUUUCAUCCU RNA 2: GGGAAUGGAUCCACAUCUACGAAUUCAAAAGGAUGAAACAAUUUGGAGAAGAACAGAUCGGAAGAGCACACGU | 4.6 ± 0.7
15 | target 2 MT 5'PFS GAU 3'PFS UUC (mixed) RNA 1: CACCCGUGCAAAAUUGCAGGGGUCUAAAACCUUCUCCAAAUUGUUUCAUCCU RNA 2: GGGAAUGGAUCCACAUCUACGAAUUCGAUAGGAUGAAACAAUUUGGAGAAGUUCAGAUCGGAAGAGCACACGU | 28 ± 7
16 | target 2 MT 5'PFS GCU 3'PFS ACG (mixed) RNA 1: CACCCGUGCAAAAUUGCAGGGGUCUAAAACCUUCUCCAAAUUGUUUCAUCCU RNA 2: GGGAAUGGAUCCACAUCUACGAAUUCGCUAGGAUGAAACAAUUUGGAGAAGACGAGAUCGGAAGAGCACACGU | 14.6 ± 1.4
17 | target 2 MT 5'PFS CAU 3'PFS ACG (mixed) RNA 1: CACCCGUGCAAAAUUGCAGGGGUCUAAAACCUUCUCCAAAUUGUUUCAUCCU RNA 2: GGGAAUGGAUCCACAUCUACGAAUUCCAUAGGAUGAAACAAUUUGGAGAAGACGAGAUCGGAAGAGCACACGU | 7.9 ± 2.5
18 | target 2 MT 5'PFS AGG 3'PFS CUA (mixed) RNA 1: CACCCGUGCAAAAUUGCAGGGGUCUAAAACCUUCUCCAAAUUGUUUCAUCCU RNA 2: GGGAAUGGAUCCACAUCUACGAAUUCAGGAGGAUGAAACAAUUUGGAGAAGCUAAGAUCGGAAGAGCACACGU | 6.7 ± 1.1
19 | target 2 MT 5'PFS GGA 3'PFS ACG (mixed) RNA 1: CACCCGUGCAAAAUUGCAGGGGUCUAAAACCUUCUCCAAAUUGUUUCAUCCU RNA 2: GGGAAUGGAUCCACAUCUACGAAUUCGGAAGGAUGAAACAAUUUGGAGAAGACGAGAUCGGAAGAGCACACGU | 13.9 ± 1.4
20 | target 2 MT 5'PFS AAC 3'PFS CCA (mixed) RNA 1: CACCCGUGCAAAAUUGCAGGGGUCUAAAACCUUCUCCAAAUUGUUUCAUCCU RNA 2: GGGAAUGGAUCCACAUCUACGAAUUCAACAGGAUGAAACAAUUUGGAGAAGCCAAGAUCGGAAGAGCACACGU | 13 ± 4
21 | target 2 MT 5'PFS AUU 3'PFS AUC (mixed) RNA 1: CACCCGUGCAAAAUUGCAGGGGUCUAAAACCUUCUCCAAAUUGUUUCAUCCU RNA 2: GGGAAUGGAUCCACAUCUACGAAUUCAUUAGGAUGAAACAAUUUGGAGAAGAUCAGAUCGGAAGAGCACACGU | 9.5 ± 1
22 | target 2 MT 5'PFS GGA 3'PFS ACC (mixed) RNA 1: CACCCGUGCAAAAUUGCAGGGGUCUAAAACCUUCUCCAAAUUGUUUCAUCCU RNA 2: GGGAAUGGAUCCACAUCUACGAAUUCGGAAGGAUGAAACAAUUUGGAGAAGACCAGAUCGGAAGAGCACACGU | 14.1 ± 2.6
23 | target 2 MT 5'PFS CUG 3'PFS UAC (mixed) RNA 1: CACCCGUGCAAAAUUGCAGGGGUCUAAAACCUUCUCCAAAUUGUUUCAUCCU RNA 2: GGGAAUGGAUCCACAUCUACGAAUUCCUGAGGAUGAAACAAUUUGGAGAAGUACAGAUCGGAAGAGCACACGU | 2.76 ± 0.35
24 | target 2 MT 5'PFS UCU 3'PFS AUC (mixed) RNA 1: CACCCGUGCAAAAUUGCAGGGGUCUAAAACCUUCUCCAAAUUGUUUCAUCCU RNA 2: GGGAAUGGAUCCACAUCUACGAAUUCUCUAGGAUGAAACAAUUUGGAGAAGAUCAGAUCGGAAGAGCACACGU | 7.3 ± 1
25 | target 2 MT 5'PFS CUG 3'PFS UAG (mixed) RNA 1: CACCCGUGCAAAAUUGCAGGGGUCUAAAACCUUCUCCAAAUUGUUUCAUCCU RNA 2: GGGAAUGGAUCCACAUCUACGAAUUCCUGAGGAUGAAACAAUUUGGAGAAGUAGAGAUCGGAAGAGCACACGU | 3.1 ± 0.5
26 | target 2 MT 5'PFS UUG 3'PFS UUU (mixed) RNA 1: CACCCGUGCAAAAUUGCAGGGGUCUAAAACCUUCUCCAAAUUGUUUCAUCCU RNA 2: GGGAAUGGAUCCACAUCUACGAAUUCUUGAGGAUGAAACAAUUUGGAGAAGUUUAGAUCGGAAGAGCACACGU | 25.5 ± 3.3
27 | target 2 MT 5'PFS AGA 3'PFS UAC (mixed) RNA 1: CACCCGUGCAAAAUUGCAGGGGUCUAAAACCUUCUCCAAAUUGUUUCAUCCU RNA 2: GGGAAUGGAUCCACAUCUACGAAUUCAGAAGGAUGAAACAAUUUGGAGAAGUACAGAUCGGAAGAGCACACGU | 6.5 ± 1.1
28 | target 2 MT 5'PFS GGA 3'PFS ACU (mixed) RNA 1: CACCCGUGCAAAAUUGCAGGGGUCUAAAACCUUCUCCAAAUUGUUUCAUCCU RNA 2: GGGAAUGGAUCCACAUCUACGAAUUCGGAAGGAUGAAACAAUUUGGAGAAGACUAGAUCGGAAGAGCACACGU | 9.8 ± 0.7
